Patent US8440629B2, “Cyclic receptor-associated protein (RAP) peptides” (Raptor Pharmaceuticals Inc., priority 2007, dated 2013)
Changes are numbered by the printed parent chain. In names and notes the source's numbering stands.

B1: MegaRAP1 d3 T213S: MegaRAP1 d3 revertant T213S (protein)
chain: LDRLRRVSHQGYSTEAKFEEPRVIDLWDLAQSANLTDKELEAFREELKYFKAKIEAHNHYQKQLEIAHEELRHAESVGDGERVSRSREKHALLEGRTKELGYTVKKHLQDLSGRISRAR
B2: MegaRAP1 d3 K251E: MegaRAP1 d3 revertant K251E (protein)
chain: B1 chain with S13T, K51E
B3: MegaRAP1 d3 A256K: MegaRAP1 d3 revertant A256K (protein)
chain: B1 chain with S13T, A56K
B4: MegaRAP1 d3 Y249H: MegaRAP1 d3 revertant Y249H (protein)
chain: B1 chain with S13T, Y49H
B5: MegaRAP1 d3 K217E: MegaRAP1 d3 revertant K217E (protein)
chain: B1 chain with S13T, K17E
B6: RAP d3 K270E: RAP d3 forward mutant K270E (protein)
chain: B1 chain with K17E, Y49H, K51E, A56K

target: T1, LRP2 CR89 (Homo sapiens, UniProt P98164); test: Solid phase binding assay; conditions: solid-phase assay
T1 construct: two CR pairs from LRP2 (CR89, CR3435); made in house; host or cells: E. coli BL21(DE3) CodonPlus-RIPL, pET30(+)a
Procedure: (§1) All expression constructs were sequenced to verify insert sequences and the junctions with the expression vector. Each plasmid was then used to transform BL21(DE3) CodonPlus-RIPL™ cells (Stratagene). Expression of the CR proteins was induced in logarithmic growth-phase cells grown in LB supplemented with 34 μg/mL chloramphenicol, 12.5 μg/mL tetracycline and 15 μg/mL kanamycin by addition of 2 mM IPTG, followed by reduction in incubator temperature to 32° C. and incubation for 4 hours with agitation at […]. Cells were pelleted and resuspended, at 3.5% of the initial culture volume in 10 mM Tris-HCl pH 8, 100 mM NaH2PO4, 8M Urea. Resuspended cells were then frozen in liquid nitrogen, rapidly thawed to 37° C. and sonicated for 10 seconds at an amplitude setting of 60 using a Cole-Parmer CP-130 ultrasonic processor connected to a 3 mm probe. This procedure was repeated three times to effect complete lysis of the cells. Lysates were clarified by spinning twice at 10,000×g in a Sorvall RC-5 centrifuge for 20 minutes at 15° C. Ni-NTA columns (Qiagen Superflow™, 1.5 mL packed bed) were used to purify the CR proteins. Briefly, the resin was equilibrated with two column volumes of lysis buffer. The clarified lysate was then supplemented to 20 mM with imidazole and incubated with the equilibrated Ni-NTA resin overnight at 4° C. The flow-through was discarded. Columns were washed once with one column volume of lysis buffer and then three times with one column volume of TBS pH 8 supplemented with 20 mM imidazole. CR-loaded beads were then removed from the column and CR proteins eluted by incubating at room temperature for 30 minutes with one column volume of the same buffer containing 200 mM imidazole. This step was repeated once and the eluates pooled. Eluted CR protein solutions were then supplemented to 2 M urea, 10 mM CaCl2 and 5 mM DTT. Purified, denatured CR protein solutions were transferred to 3,500 MWCO Slide-A-Lyzer™ (Pierce) cassettes and sequentially dialyzed against a 200-fold excess of 50 mM Tris-HCl pH 8.5, 10 mM CaCl2, 1 mM reduced glutathione, 0.5 mM oxidized glutathione at room temperature overnight and then against TBS supplemented with 5 mM CaCl2 at 4° C. overnight. Protein concentrations were determined by Bradford assay and purity confirmed by SDS-PAGE with Coomassie Brilliant Blue staining.
(§2) Purified, refolded CR protein (1 μg) was bound to Nunc Maxisorp™ 96-well plates in TBS pH 8 supplemented with 5 mM CaCl2 (TBSC) overnight at 4° C. Wells were washed with TBSC and then blocked with TBSC containing 2% bovine serum albumin (BSA). RAP ligands were then incubated with the immobilized receptor at a range of concentrations for 2 hours in the above blocking buffer supplemented with 0.05% Tween-20 at room temperature. Control wells contained no added ligand. As an additional control, to determine whether the absence of calcium affected binding, 10 mM EGTA was included in the incubation medium for some samples. Wells were washed with TBSTC and bound ligands detected with polyclonal anti-RAP (BP41/42, 1:1,000, BioMarin). Excess primary antibody was removed and wells washed before incubation with the secondary antibody, HRP-conjugated goat anti rabbit IgG (Bio-Rad). After washing, TMB substrate solutions (Bio-Rad) were added to detect HRP. Color development was stopped with 1N HCl. Absorption at 450 nm was measured with a microplate spectrophotometer (Molecular Devices). Data were plotted and Kd values derived by non-linear regression with the assumption of single-site binding (GraphPad Prism).

T1 sequence (P98164 1022-1105 limits assumed): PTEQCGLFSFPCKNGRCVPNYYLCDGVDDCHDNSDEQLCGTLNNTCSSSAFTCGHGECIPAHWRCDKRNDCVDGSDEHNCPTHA

| binding to LRP2 CR89 (in words) | Molecule |
| --- | --- |
| slightly improved affinities | B1 |
| failed to bind | B2 |
| failed to bind | B3 |
| failed to bind | B4 |
| slightly improved affinities | B5 |

target: T2, LRP1 CR3-5 (Homo sapiens, UniProt Q07954); test: Solid phase binding assay; conditions: solid-phase assay
T2 construct: made in house; host or cells: E. coli BL21(DE3) CodonPlus-RIPL, pET30(+)a
Procedure: as §1, §2
From the large number of CR pairs with unique combinations of amino acids at A, C, A′ and C′ within the calcium-binding loop of each CR, CR pairs or triplets were selected to test their binding to RAP d3 (FIG. 2). An additional pair derived from the FDC-8D6 protein was tested, designated 8D6 CR12, having the sequence ([…]) (SEQ ID NO: 91). […]

T2 sequence (Q07954 852-973): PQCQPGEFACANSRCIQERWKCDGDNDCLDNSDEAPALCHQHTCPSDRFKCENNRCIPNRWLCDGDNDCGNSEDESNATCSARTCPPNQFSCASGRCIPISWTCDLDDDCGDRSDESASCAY

| binding to LRP1 CR3-5 (in words) | Molecule |
| --- | --- |
| unable to detectably bind | B1 |
| failed to bind | B2 |
| failed to measurably bind | B6 |
| failed to bind | B3 |
| failed to bind | B4 |
| unable to detectably bind | B5 |
